Experimental data reported in the domain aggregation screens of Martell et al. (2025).

Experiment: soluble fraction after stress (log2 fold change); higher = more stays soluble; pooled small domains, quantitative proteomics
Details: stress: pH 4
Procedure, shortened: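 Aggregation propensity here comes from the fold change in the soluble amount of each small protein domain after acid stress, measured in pooled custom libraries by high-throughput quantitative proteomics. The acid stress was pH 4. On the log2 scale, higher values mean more of the domain stayed soluble.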

| Sequence | soluble fraction (log2) |
| --- | --- |
| HMVSDTGAIEAIVAQVLADNPKLVEGYLATPEDKRGKAIGPFIGLTRKAAAGVNPQVVMDVLKKKLSEL | -0.733 |
| HMGPAAGVVEKYNLAHLSTGEMIRKEIAEGSDFGKMAAGIINKGELLSDEFVVALIENSIEHHKNVDGFLF | -0.22 |
| HMLELTGEEEFVIRTLTRQGDLHINALVVETDIPINRMISLLFELEMKGVVKALVGGVYHLLG | -1.58 |
| HMVEGTVKWFNDEKGFGFIEQEGGKDVFVHFSAINGSGRRTLHEGQRVTMEVTQGQKGPQAENVNP | -0.436 |
| HMEAFDYLGRRTRDLLERQGWTTVPLVRDAYLAVPGGERLLQVPGFGRKSLREVRRWLWLQIGDPRFE | 0.114 |
| HMNSNSLSFSKFMQEVEAGRVIEVQIKGNDIQGELSDGSKFKTYSPNYPNLVDKLSENKVSIVATPL | 0.105 |
| HMGIQYVASGHYARMETDAQGVSRLFPPESGAPDESDRLAALSPEVLTRLILPLGDFAPEDVEEMAVD | -0.294 |
| HMSNLKKRRLEKNLTLDDVGKLVGVSAATISRWESGDIENMRSDKIVKLANALEISPAVILGW | -0.641 |
| HMDSIQMKNNSILYYGNTAGYLDAKRNTAVVDPMFRTDEMESYLSEQKGLSVEWASGTYDRLT | -0.921 |
| HMNQWQLLSEDGAILGTRVLYHPHETEQPFTRSLSGVKIPAHVQSVTIRAGDLVHGFGGREIQMQLPPIV | 0.0124 |
| HMGPYGAGSAAPAEDGSGPEGWTVKGNAKSMLYHTEGSPYYGRTNADVWFRDEESAEAAGFRRWDRK | 0.033 |
| HMLTPSRVLPYLFEDSFFIDTLSLEKDQVVGFLEYIDERLPPQDLMNKSKEFELIDYLINESEAYLSQ | -0.311 |
| HMPSSFLVKVTADALNIRSGPGVANRITGTIKDKGTYTIVDTKDDWGKLKSGVGWIHLGYTKRLD | 0.0923 |
| HMINIGANIRAIRKQKNIKQVDLVRLLQLEGVEITRETLVKIESGVQHIKASQLRGIRDALGTTYDELL | -0.863 |
| HMKTLGMDKGVNIALNDAGLRAEDVSNLSAHYDTEDGVPVYEIKFTAGGFSYEYQIKASDGTIIEADRDAA | -0.0393 |
| HMTKIKAIFFDIDGTIRSFKTKTIPENTANTLKKLKEQGIKIFIATGRAPFHTTFLNDLLDFKFDGYITIN | -0.0405 |
| HMEDYYKILGVSKDASIDDIKKSYRKLSLQNHPDRNKSPQASENFAKINSAYEVLSDQRKKRQYDMQQSM | ≥ 0.43 |
| HMLSDADLAAFREVFDLVDKDKSGAIEMEEVEELTKLLGLDLTRDEVELLVREIDKDGNGEVDFEEFLLVM | -0.115 |
| HMDDNRSLSDLAQQVFKRENIQVSRDTLSLLVSRLGSDRAVSRQEIEKLALFAGSNGKLTEEDIHNALG | -0.195 |
| HMRDSYEVEGRIASVSPAAGTFVVAGVTVDYTGARFVGGTVAQLAPGVKVEVEGRRLANGTLQAREIEFD | -0.12 |
| HMTAMDTQQKKLIIMYHDIHRLRNVEHFTIQRIADHLLLNFRTVKKFLEMTQEEFDKFSENRW | -0.0481 |
| HMFDGNIKIVEDAFSVTIVARGTEVKISGDPENVYLASKTVEGLLTLIDKGEAITDQRVHYVIGLVREG | -1.71 |
| HMINITALVKQLGGVDISKFNSAFKLLQQGKPLNTISNKVMADTFVALMKNSDEALNTKFRAAFKKI | 0.0515 |
| HMPQPDVIEVRQGIVTGMRPDRRTGWLRDEEDAAGEPKSFSIDVITPKGRTPGKGAVVTYTLTNGKITEVK | 0.143 |
| HMGKINEIVANNIAILRKKNRLSLEELGKLSGVSKSMLALIEKGDGNPTLGILWKIANGLGVPFDELTRRP | 0.0455 |

| Sequence | soluble fraction (log2) |
| --- | --- |
| HMSTGYEMVREVANQGSFSKAANSLGVSGPAVSKQVKSLEERLGLVLFHRTTRAVSLTQAGRQLVDVLN | -0.036 |
| HMVGNYYDILGVPETATQDAIKKAFRSLAQQHHPDKNPDDPGAEAMFKKVSEAYQVLSDPDKRQTYDASL | -0.0611 |
| HMTTPAAISKIKKLEEAKRLLATTTYSMKEIAVKLKYKSHTHFGMDFKNNTGMTPAEYRKAIKAKREKQMN | 0.173 |
| HMISFLNFVRKEIDASQLKDSTKQNHLTTIGLLQSFKPSIEFKDLNYNFITSFEKYLYDAGYQM | 0.105 |
| HMIYNSGTTDSRGEAIVGGYLVTVTDTDTKDPVANAAVTLHKDNSISIRLPNSRLLDYADQTTVTVQLV | -0.00411 |
| HMEGDKEIPNVIGKSINDAKKILEQAGLKLGEVKKVNDSSVAKNVVLSTNPNAGTKVSAGDAVSITVAEG | 0.278 |
| HMVVTRVKAIDVVNIRKSDSETADKLGKAAVGDEFDLLEKKGNGWSKISYEGGEAYIKSEFLEPSE | 0.034 |
| HMVTDVDYSTFLSQVEEGKVESVTIEDGEILFKGKDENGEARWYITGEMNDPNLVERLKDKVPSFNAPA | -0.128 |
| HMDSTSEILKVIQNIVKKEDPYHPLSDDKISNLLNDLDYQISRRTVAKYRDILTIPSSSKRRKL | -0.0776 |
| HMQVPFGFQRNPSTGTLEEKAEEQLIINQVLSLKNSGIGVSEISKRLGELSVSRIYRIINTAKKNAS | -0.107 |
| HMDVNHVIIDHKGNSIQAIIDSIDLDNVYYQSKIKKESEVIDIDKVYFIFNDFDRVYHYDWSYYENL | -0.468 |
| HMTYQHQSIIHRRTRGAILTAAKELLAESGISGTNMIEIADRAQVSRASLYNHFRDKHEVFLALVES | -0.407 |
| HMKESRLFRILYYLLQHKKATAPELAEEFEVSVRTIYRDIDYISSAGVPIYATQGKDGGIAILDSF | -0.81 |
| HMRGLLSQREHDVLDLVARGFSYGEIARLRSISVSTVQTHIKNLYRKLAVSSRTEAVYEAKQMGI | -0.755 |
| HMQDTVKNVFGAFTIFTDKPFAIGDTINVNGLEGTVVDVGMRSTQILGYDRRITSYPNYKITDSSIVNISS | -0.636 |
| HMTGMEAAEFGKRIMKLRKQKGMTQSKLAEQINVSNKAISRWETGEGFPEITLLKPLAKALGTTVDELFGE | -0.271 |
| HMNIIMLGEFIKEQRIKRKMTQEYLASELGISRPTYSQIELGTRELTIPEARKMAAIFNISLEDFLAEKE | 0.149 |
| HMGASIQITVNNTPVMLKNKTHYTLVDVLDFYPFDLSKMGGTELYTAINGVKSGFTDPVHANDSIEIYWI | 0.196 |
| HMNSEAVQNVIDKISALPDDITAKAKSQIEEARAAYEALSDSEKARVTNYSTLVAAEKKLASVVKD | 0.121 |
| HMTNNDIIRRVRYLFNFSDKQVIELFKLANETVSIEHVSGWLKKEEDPTLIEISDRDLAVFLNGLII | -1.65 |
| HMLGRPDMSPIPEGSRNNDLHAWGFGRLANHPDNKRQIEADFFERGRISGLGDAEIRASWNSILRQLGHQ | 0.276 |
| HMKLPNSFGSIQKLSGNRRKPYRVVKTIGWDENGKQIRKTLGYYETRAKALQELALFNEKPYD | 0.22 |
| HMIAGHLQIKNDYYYMVLSYTDSDGKRKQPWIPTGLPMKGNKKRAEKMLIETRQTYVPPVSSG | 0.203 |
| HMKISIPQEYFEIYNVLKQRPMHINEISKILKKPVSEISGTISLMEIEGYITKLTTDQYVLKKI | -0.644 |
| HMASVAKHIRRLRTERHMTQGDLAEKLFVTRQTVSAWETGKAQPDLETLERIAVVLGVEVTELIYGAP | -0.537 |

| Sequence | soluble fraction (log2) |
| --- | --- |
| HMGKPAGLIRELGNHPEDEKPVTLNNGRFGPYVKHGKVMASLTKADSPDDITFDRAIELIAIKAEKMAAKG | -0.00901 |
| HMGGELLSLRRIGTLTGISYPTLLRYVARYGEQIPQTGTGRSRRFPPAAVPVFQELRATRGRAPRATA | 0.0768 |
| HMSGPDGLTEREIEVLRLLASGLSNRAIGERLYISTNTAANHVRSILLKTGAANRTQAAMYAADHEML | 0.0798 |
| HMGIDISAFSETALQVLRLQAAGYTAKEISEKLHITPRTVKYHASQNYRKLDAKNLVDAVQIAQALHI | -0.171 |
| HMNTSSVTVHYQDEAGKSLADTVTLTGKVGETYSSEQKKITGYNFKEVRGNPKGQFTTEAQTVTYVYTQAA | -0.195 |
| HMTIGKRIKRRRIELKMSIDSLARTIGKDRSTVYRYESGAIDKVSSDVLAKLATALNTTPAYLIGL | 0.22 |
| HMGLWWTEAERELVKTTIEQLYKDTNIAEPVDSKNLRASIPALKAMRTGLSAENQARVDTLLGALQV | -0.915 |
| HMVDDELTARRRVNLRRIADELGGAAAVARKTQKSVQQISSMLNGTKSFGSKIARDIEPKLGLPLQSLDKE | 0.203 |
| HMSAETREELVGREGVSLTDLRPSGFALFGQEKIDVVSESEFIEEGTSVRIVSVEGSRHIVRAKR | -1.24 |
| HMLSNLYAVLGVGRRATPDEITAAFDAWNARADAGEPIDDPLWERVRYAWDVLSSPSRRDLYDSLVDDATG | -2.25 |
| HMSSFRDISGTVYVKASAANLRSEPNTSSLIVDTLYYGASLQRISTNDIWTKVKTGNGQIGFMDNSLFQT | ≥ 0.43 |
| HMRRSKVMLESILDEIPQMGQARRAALLEQFGSVAALRKASLAEIAMTPGIGEKIAVIIFEYLQKSSH | -0.067 |
| HMGMFNENLRFLRQKRQMSQQAFASILGIPRTTYSEYEKGNTEPNLKLLIRLSELLDVSLDNLISDDLTHN | -0.642 |
| HMDTIVVAARSIQARQTLTESDLRVEEQEIGAASDKYYTDIAEAVGLVSSRRLSPGQPILRTM | -0.273 |
| HMETKVIVPKVTGMNSKSAINYLSARGLKYKAVPADSGKSFHVVDQYPKSGTKVSPHSTVYLYS | 0.386 |
| HMKNISSEEDREKALSLGITQEFIDNKGRYFITVPNKPSNFKEQALNIQKEISEQIDTVINKRFEF | -0.263 |
| HMELDFNSVYRQLNHEQKQAYQSIKSVLEQKISGSELDKKLKQAQQAFVAKFKENPNFEVPK | 0.22 |
| HMSIQREIILEVIKNNRTHPTAEEIYILVTKKEPKISRSTVYRNINILVEKGIIEKITIATGPDRYDY | -0.126 |
| HMTDGLTVPMQGVVIRYKAKKGDKVAVGDAVAVLEAMKMEQNIFANKSGTIKEIYIKEGTTVTPGDVLMSI | -0.89 |
| HMASAAHYEGVKTEGESDNDVITRVLTATGVTAEKDDIFVVKSLIADGKYSYTAYVYDGSVWAAMD | -0.541 |
| HMNDLIFSTLAEYDRDTITEIISVVDNTRGIGYEVELVRKDLIAMAAQAEARRDYLPSVIGDVEVFKRNLL | -0.0414 |
| HMYEINEIIRERRLKKGLTQAQVAKYLGVSAPAVNKWEKGTTYPDLVLLPALARLLDTDLTTLLSF | -1.02 |
| HMRIDVWLAENGFAPSRQKAQDLIAAGRVFQTDPSGRRQKVSKASAAVDPALSPKIEVIPDPE | 0.068 |
| HMTDPVLYEERDDIAIITINRPEKKNTLTDAVIQGIADGIDAATKSADVVAVVLRGAGDTLTAGYDLTA | -1.28 |
| HMGGKWKLRILLALENSAQDALRYGEIKNIVSGITDMMLSQSLRELTADGLIERRQYQEIPPKVEYRLS | -0.868 |
